Key:
[1] = system: CBCA, THCA, and CBDA production; test: In vivo TS activity assay, Example 2 protein engineering of A. niger CBCAS, cultures fed olivetolic acid; type: cell-based, S. cerevisiae; details: for average CBCA titer compared with the A. niger positive control / Mean CBCA / Mean CBDA / Mean THCA: secondary screen; for Mean CBCA / Mean CBDA / Mean THCA: olivetolic acid (Table 8); for % CBCA / % CBDA / % THCA: share of terminal cannabinoid product profile
Method: (§1) An assay to detect TS activity was conducted as follows: each thawed glycerol stock of candidate CBCAS transformants was stamped into a well of YEP+4% dextrose media. Samples were incubated at 30° C. in a shaking incubator for 2 days. A portion of each of the resulting cultures was stamped into a well of YEP+4% galactose+1 mM olivetolic acid (FIG. 1 Structure 6a). Samples were incubated at 20° C. and shaken in a shaking incubator for 4 days. Every 24 hours during those 4 days, 2% galactose and 1 mM olivetolic acid were spiked into the cultures. Sodium citrate buffer adjusted to pH 5.5 was added to each well at a final concentration of 100 mM. Samples were incubated at 20° C. and shaken in a shaking incubator for 2 days. A portion of each of the resulting production cultures was stamped into a well of phosphate buffered saline (PBS). Optical measurements were taken on a plate reader, with absorbance measured at 600 nm and fluorescence at 528 nm with 485 nm excitation. Samples were incubated at 30° C. in a shaking incubator for 2 days. 100% methanol was stamped into the production cultures in half-height deepwell plates. Plates were heat sealed and frozen. Samples were then thawed for 30 min and spun down at 4° C. A portion of the supernatant was stamped into half-area 96 well plates. CBCA, THCA, and CBDA production in the samples was quantified via liquid chromatography-mass spectrometry (LC-MS).
(§2) To determine whether engineering of the A. niger CBCAS identified in Example 1 (corresponding to SEQ ID NO: 29 (with signal peptides); SEQ ID NO: 27 (without signal peptides and including an N-terminal methionine (UniProt accession No. A0A254UC34)); or SEQ ID NO: 25 (without signal peptides and without the N-terminal methionine)), could alter CBCAS substrate specificity, product specificity and/or amounts of products produced, point mutations were generated in A. niger CBCAS and the mutant versions of the protein were expressed in S. cerevisiae. A library containing 1047 A. niger CBCAS mutants was generated and screened. As in Example 1, each CBCAS mutant in the library, as well as the enzymes expressed by positive control strains, included an N-terminal MFalpha2 signal peptide (SEQ ID NO: 16) (with a methionine residue added at the N-terminus of the MFalpha2 signal peptide) and a C-terminal HDEL signal peptide (SEQ ID NO: 17).
Production of compounds of Formulae (9), (10), and/or (11), including compounds of Formulae (9a), (10a), and/or (11a) by strains expressing the mutated versions of A. niger CBCAS was quantified and compared to the production of the same compounds by a strain expressing wild-type A. niger CBCAS, a strain expressing a C. sativa THCAS, and a strain expressing a C. sativa CBDAS. The strains were screened using the same assay described in Example 1. Production of CBCA, THCA, and/or CBDA in the samples was quantified via LC-MS.
(§3) Of the original 1047 library members, 55 strains were elevated to a secondary screen to verify CBCA production. The experimental protocol for the secondary screen was identical to the primary screen, except that additional biological replicates were included per strain, and replicate production cultures for each strain were separately fed 1 mM boluses of olivetolic acid or 1 mM boluses of divaric acid. All strains were screened in quadruplicate.

[2] = system: CBCVA, THCVA, and CBDVA production; test: In vivo TS activity assay, Example 2 protein engineering of A. niger CBCAS, cultures fed divaric acid; type: cell-based, S. cerevisiae; details: for Mean CBCVA / Mean CBDVA / Mean THCVA: S. cerevisiae strains expressing A. niger CBCAS mutants; for Mean CBCVA / Mean CBDVA / Mean THCVA / average CBCVA titer compared with the A. niger positive control: secondary screen; for Mean CBCVA / Mean CBDVA / Mean THCVA / % CBCVA / % CBDVA / % THCVA: fed divaric acid; for % CBCVA / % CBDVA / % THCVA: share of terminal cannabinoid product profile
Method: as §1, §2, §3

Molecule	average CBCA titer compared with the A. niger positive control [1]	Mean CBCA [1] [µg/L]	Mean CBDA [1] [µg/L]	Mean THCA [1] [µg/L]	% CBCA [1] [%]	% CBDA [1] [%]	% THCA [1] [%]	Mean CBCVA [2] [µg/L]	Mean CBDVA [2] [µg/L]	Mean THCVA [2] [µg/L]	% CBCVA [2] [%]	% CBDVA [2] [%]	% THCVA [2] [%]	average CBCVA titer compared with the A. niger positive control [2]
t865771 (protein, expressed in S. cerevisiae strain) MGNTTSIAGRDCLISALGGNSALAVFPNELLWTADVHEYNLNLPVTPAAITYPETAAQIAGVVKCASDYDYKVQARSGGHSFGNYGLGGADGAVVVDMKHFTQFSMDDETYEAVIGPGTTLNDVDIELYNNGKRAMAHGVCPTIKTGGHFTIGGLGPTARQWGLALDHVEEVEVVLANSSIVRASNTQNQDVFFAVKGAAANFGIVTEFKVRTEPAPGLAVQYSYTFNLGSTAEKAQFVKDWQSFISAKNLTRQFYNNMVIFDGDIILEGLFFGSKEQYDALGLEDHFAPKNPGNILVLTDWLGMVGHALEDTILKLVGNTPTWFYAKSLGFRQDTLIPSAGIDEFFEYIANHTAGTPAWFVTLSLEGGAINDVAEDATAYAHRDVLFWVQLFMVNPVGPISDTTYEFTNGLYDVLARAVPESVGHAYLGCPDPRMEDAQQKYWRTNLPRLQELKEELDPKNTFHHPQGVMPA	higher	40971.16	8309.68	2638.90	78.91	16.00	5.08	1592.02	0.00	968.82	62.17	0.00	37.83	–
t878464 (protein, expressed in S. cerevisiae strain) MGNTTSIAGRDCLISALGGNSALAVFPNELLWTADVHEYNLNLPVTPAAITYPETAAQIAGVVKCASDYDYKVQARSGGHSFGNYGLGGADGAVVVDMKHFTQFSMDDETYEAVIGPGTTLNDVDIELYNNGKRAMAHGVCPTIKTGGHFTIGGLGPTARQWGLALDHVEEVEVVLANSSIVTASNTQNQDVFFAVKGAAANFGIVTEFKVRTEPAPGLAVQYSYTFNLGSTAEKAQFVKDWQSFISAKNLTRQFYNNMVIFDGDIILEGLFFGSKEQYDALGLEDHFAPKNPGNILVLTDWLGMVGHALEDTILKLVGNTPTWFYAKSLGFRQDTLIPSAGIDEFFEYIANHTAGTPAWFVTLSLEGGAINDVAEDATAYAHRDVLFWVQLFMVNPVGPISDTTYEFTDGLYDVLARAVPESVGHAYLGCPDPRMEDAQQKYWRTNLPRLQELKEELDPKNTFHHPQGVMPA	higher	38911.71	9203.22	2062.10	77.55	18.34	4.11	5383.16	0.00	2710.86	66.51	0.00	33.49	higher
t865739 (protein) MGNTTSIAGRDCLISALGGNSALAVFPNELLWTADVHEYNLNLPVTPAAITYPETAAQIAGVVKCASDYDYKVQARSGGHSFGNYGLGGADGAVVVDMKHFTQFSMDDETYEAVIGPGTTLNDVDIELYNNGKRAMAHGVCPTIKTGGHFTIGGLGPTARQWGLALDHVEEVEVVLANSSIVRASNTQNQDVFFAVKGAAANFGIVTEFKVRTEPAPGLAVQYSYTFNLGSTAEKAQFVKDWQSFISAKNLTRQFYNNMVIFDGDIILEGLFFGSKEQYDALGLEDHFAPKNPGNILVLTDWLGMVGHALEDTILKLVGNTPTWFYAKSLGFRQDTLIPSAGIDEFFEYIANHTAGTPAWFVTLSLEGGAINDVAEDATAYAHRDVLFWVQLFMVNPVGPISDTTYEFTDGLYDVLARAVPESVGHAYLGCPDPRMEDAQQKYWRTNLPKLQELKEELDPKNTFHHPQGVMPA	higher	40214.21	10767.85	2538.89	75.14	20.12	4.74	4265.42	0.00	2039.44	67.65	0.00	32.35	higher
t865689 (protein) MGNTTSIAGRDCLISALGGNSALAVFPNELLWTADVHEYNLNLPVTPAAITYPETAAQIAGVVKCASDYDYKVQARSGGHSFGNYGLGGADGAVVVDMKHFTQFSMDDETYEAVIGPGTTLGDVDRELYNNGKRAMAHGVCPTIKTGGHFTIGGLGPTARQWGLALDHVEEVEVVLANSSIVRASNTQNQDVFFAVKGAAANFGIVTEFKVRTEPAPGLAVQYSYTFNLGSTAEKAQFVKDWQSFISAKNLTRQFYNNMVIFDGDIILEGLFFGSKEQYDALGLEDHFAPKNPGNILVLTDWLGMVGHALEDTILKLVGNTPTWFYAKSLGFRQDTLIPSAGIDEFFEYIANHTAGTPAWFVTLSLEGGAINDVAEDATAYAHRDVLFWVQLFMVNPVGPISDTTYEFTDGLYDVLARAVPESVGHAYLGCPDPRMEDAQQKYWRTNLPRLQELKEELDPKNTFHHPQGVMPA	higher	38241.90	10157.65	2452.92	75.20	19.97	4.82	6333.32	0.00	2791.18	69.41	0.00	30.59	higher
t865750 (protein, expressed in S. cerevisiae strain) MGNTTSIAGRDCLISALGGNSALAVFPNELLWTADVHEYNLNLPVTPAAITYPETAAQIAGVVKCASDYDYKVQARSGGHSFGNYGLGGADGAVVVDMKHFTQFSMDDETYEAVIGPGTTLNDVDIELYNNGKRAMAHGVCPTIKTGGHFTIGGLGPTARQWGLALDHVEEVEVVLANSTIVRASNTQNQDVFFAVKGAAANFGIVTEFKVRTEPAPGLAVQYSYTFNLGSTAEKAQFVKDWQSFISAKNLTRQFYNNMVIFDGDIILEGLFFGSKEQYDALGLEDHFAPKNPGNILVLTDWLGMVGHALEDTILKLVGNTPTWFYAKSLGFRQDTLIPSAGIDEFFEYIANHTAGTPAWFVTLSLEGGAINDVAEDATAYAHRDVLFWVQLFMVNPVGPISDTTYEFTDGLYDVLARAVPESVGHAYLGCPDPRMEDAQQKYWRTNLPRLQELKEELDPKNTFHHPQGVMPA	higher	39940.41	10807.90	2475.89	75.04	20.31	4.65	5745.78	0.00	2770.13	67.47	0.00	32.53	higher
